According to patent publication US7432061B2, “Assays for measuring matrix metalloproteinase activities” (BioZyme, Inc., priority 2002, dated 2008):

What was measured:
collagenase 1 = target: T1, collagenase 1 (Homo sapiens, UniProt P03956); test: Inhibition with type II collagen, FlSub3 cleavage; format: biochemical; settings: for Improvement In Selectivity (Col-1 v Col-3): 44 ug/ml Type II Collagen vs no Type II Collagen, FlSb3; for Average Percent Inhibition from 1.1 to 6.6 Hours / Average Percent Inhibition: COL1(1.25 nM)
T1 sequence (P03956 100-469): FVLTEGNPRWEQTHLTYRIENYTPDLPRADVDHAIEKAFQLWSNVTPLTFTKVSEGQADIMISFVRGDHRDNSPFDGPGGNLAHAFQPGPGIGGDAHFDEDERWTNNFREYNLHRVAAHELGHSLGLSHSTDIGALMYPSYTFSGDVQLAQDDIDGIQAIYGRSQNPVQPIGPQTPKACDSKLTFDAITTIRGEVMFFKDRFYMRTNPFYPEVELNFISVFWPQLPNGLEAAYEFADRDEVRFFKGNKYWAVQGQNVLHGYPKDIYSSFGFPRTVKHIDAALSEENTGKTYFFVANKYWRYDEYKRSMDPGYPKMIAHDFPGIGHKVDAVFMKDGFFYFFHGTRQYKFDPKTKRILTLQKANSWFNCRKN
Protocol: (§1) In a 96 well plate, collagenase 3 (0.013 nM), collagenase 1 (1.25 nM), stromelysin 1 (0.8 nM), gelatinase A (0.025 nM), or gelatinase B (0.008 nM) were reacted with 20 uM FlSub3 in standard assay buffer in the presence of varying concentrations of bovine type II collagen (0.18-44 ug/ml). The type II collagen, a 1 mg/ml stock in 0.5M acetic acid, was transferred into assay buffer by passing the material through a biospin P6 column from Amersham. The reaction was initiated by addition of substrate to enzyme containing either buffer or an appropriate amount of type II collagen. Data points were taken every 15 min over a period of 15 hours using an excitation and emission wavelength of 350 and 485 nm respectively. The usable data (1-6 hours), was taken and the percent inhibition by type II collagen was calculated for each enzyme and plotted as a function of inhibitor concentration and time in the assay. It should be noted that the percent inhibition varies with time as the bovine substrate is consumed during the reaction course.

gelatinase A = target: T2, gelatinase A (Homo sapiens, UniProt P08253); test: Inhibition with type II collagen, FlSub3 cleavage; format: biochemical; settings: for Improvement In Selectivity (Gel-A v Col-3): 44 ug/ml Type II Collagen vs no Type II Collagen, FlSb3; for Average Percent Inhibition from 1.1 to 6.6 Hours / Average Percent Inhibition: GELA(.025 nM)
T2 sequence (P08253 110-660): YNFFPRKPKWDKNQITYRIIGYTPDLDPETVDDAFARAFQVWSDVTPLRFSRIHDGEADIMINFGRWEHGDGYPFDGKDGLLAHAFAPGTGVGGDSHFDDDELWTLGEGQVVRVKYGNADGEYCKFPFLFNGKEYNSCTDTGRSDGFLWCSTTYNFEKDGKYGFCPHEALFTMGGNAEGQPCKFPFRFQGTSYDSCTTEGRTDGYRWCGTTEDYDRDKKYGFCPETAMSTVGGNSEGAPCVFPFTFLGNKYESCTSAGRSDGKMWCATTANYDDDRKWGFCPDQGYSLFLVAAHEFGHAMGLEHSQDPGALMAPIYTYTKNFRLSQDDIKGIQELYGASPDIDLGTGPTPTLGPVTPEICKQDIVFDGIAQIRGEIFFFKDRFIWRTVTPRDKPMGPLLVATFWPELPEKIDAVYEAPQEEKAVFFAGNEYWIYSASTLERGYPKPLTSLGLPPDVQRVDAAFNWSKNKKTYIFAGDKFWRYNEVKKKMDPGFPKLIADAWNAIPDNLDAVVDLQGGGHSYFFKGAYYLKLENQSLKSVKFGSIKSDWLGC
Protocol: as §1

[1] = TypeIICOL(1.6 ug/ul), FISb3, hour 0.10 to 1.10
[2] = TypeIICOL(1.6 ug/ul), FISb3, hour 1.10 to 2.10
[3] = TypeIICOL(1.6 ug/ul), FISb3, hour 1.10 to 6.60
[4] = TypeIICOL(1.6 ug/ul), FISb3, hour 2.10 to 3.10
[5] = TypeIICOL(1.6 ug/ul), FISb3, hour 3.10 to 4.10
[6] = TypeIICOL(1.6 ug/ul), FISb3, hour 4.10 to 5.10
[7] = TypeIICOL(1.6 ug/ul), FISb3, hour 5.10 to 6.10
[8] = TypeIICOL(4.9 ug/ul), FISb3, hour 0.10 to 1.10
[9] = TypeIICOL(4.9 ug/ul), FISb3, hour 1.10 to 2.10
[10] = TypeIICOL(4.9 ug/ul), FISb3, hour 1.10 to 6.60
[11] = TypeIICOL(4.9 ug/ul), FISb3, hour 2.10 to 3.10
[12] = TypeIICOL(4.9 ug/ul), FISb3, hour 3.10 to 4.10
[13] = TypeIICOL(4.9 ug/ul), FISb3, hour 4.10 to 5.10
[14] = TypeIICOL(4.9 ug/ul), FISb3, hour 5.10 to 6.10
[15] = TypeIICOL(15 ug/ul), FISb3, hour 0.10 to 1.10
[16] = TypeIICOL(15 ug/ul), FISb3, hour 1.10 to 2.10
[17] = TypeIICOL(15 ug/ul), FISb3, hour 1.10 to 6.60
[18] = TypeIICOL(15 ug/ul), FISb3, hour 2.10 to 3.10
[19] = TypeIICOL(15 ug/ul), FISb3, hour 3.10 to 4.10
[20] = TypeIICOL(15 ug/ul), FISb3, hour 4.10 to 5.10
[21] = TypeIICOL(15 ug/ul), FISb3, hour 5.10 to 6.10
[22] = TypeIICOL(44 ug/ul), FISb3, hour 0.10 to 1.10
[23] = TypeIICOL(44 ug/ul), FISb3, hour 1.10 to 2.10
[24] = TypeIICOL(44 ug/ul), FISb3, hour 1.10 to 6.60
[25] = TypeIICOL(44 ug/ul), FISb3, hour 2.10 to 3.10
[26] = TypeIICOL(44 ug/ul), FISb3, hour 3.10 to 4.10
[27] = TypeIICOL(44 ug/ul), FISb3, hour 4.10 to 5.10
[28] = TypeIICOL(44 ug/ul), FISb3, hour 5.10 to 6.10
[29] = TypeIICOL(.18 ug/ul), FISb3, hour 0.10 to 1.10
[30] = TypeIICOL(.18 ug/ul), FISb3, hour 1.10 to 2.10
[31] = TypeIICOL(.18 ug/ul), FISb3, hour 1.10 to 6.60
[32] = TypeIICOL(.18 ug/ul), FISb3, hour 2.10 to 3.10
[33] = TypeIICOL(.18 ug/ul), FISb3, hour 3.10 to 4.10
[34] = TypeIICOL(.18 ug/ul), FISb3, hour 4.10 to 5.10
[35] = TypeIICOL(.18 ug/ul), FISb3, hour 5.10 to 6.10
[36] = TypeIICOL(.55 ug/ul), FISb3, hour 0.10 to 1.10
[37] = TypeIICOL(.55 ug/ul), FISb3, hour 1.10 to 2.10
[38] = TypeIICOL(.55 ug/ul), FISb3, hour 1.10 to 6.60
[39] = TypeIICOL(.55 ug/ul), FISb3, hour 2.10 to 3.10
[40] = TypeIICOL(.55 ug/ul), FISb3, hour 3.10 to 4.10
[41] = TypeIICOL(.55 ug/ul), FISb3, hour 4.10 to 5.10
[42] = TypeIICOL(.55 ug/ul), FISb3, hour 5.10 to 6.10

Improvement In Selectivity (Col-1 v Col-3) (collagenase 1): 2.5 fold
Improvement In Selectivity (Col-1 v Col-3) (collagenase 1; listed as collagen): four
Average Percent Inhibition from 1.1 to 6.6 Hours (collagenase 1; Type II Collagen 0.18 ug/ml): 0%
Average Percent Inhibition from 1.1 to 6.6 Hours (collagenase 1; Type II Collagen 0.54 ug/ml): 3%
Average Percent Inhibition from 1.1 to 6.6 Hours (collagenase 1; Type II Collagen 1.63 ug/ml): 0%
Average Percent Inhibition from 1.1 to 6.6 Hours (collagenase 1; Type II Collagen 4.89 ug/ml): 2%
Average Percent Inhibition from 1.1 to 6.6 Hours (collagenase 1; Type II Collagen 14.67 ug/ml): 10%
Average Percent Inhibition from 1.1 to 6.6 Hours (collagenase 1; Type II Collagen 44.00 ug/ml): 15%
Average Percent Inhibition (collagenase 1; [1]): 19%
Average Percent Inhibition (collagenase 1; [2]): 6%
Average Percent Inhibition (collagenase 1; [3]): 0%
Average Percent Inhibition (collagenase 1; [4]): 0%
Average Percent Inhibition (collagenase 1; [5]): −2%
Average Percent Inhibition (collagenase 1; [6]): −3%
Average Percent Inhibition (collagenase 1; [7]): −4%
Average Percent Inhibition (collagenase 1; [8]): 37%
Average Percent Inhibition (collagenase 1; [9]): 13%
Average Percent Inhibition (collagenase 1; [10]): 2%
Average Percent Inhibition (collagenase 1; [11]): 3%
Average Percent Inhibition (collagenase 1; [12]): 0%
Average Percent Inhibition (collagenase 1; [13]): −2%
Average Percent Inhibition (collagenase 1; [14]): −4%
Average Percent Inhibition (collagenase 1; [15]): 44%
Average Percent Inhibition (collagenase 1; [16]): 21%
Average Percent Inhibition (collagenase 1; [17]): 10%
Average Percent Inhibition (collagenase 1; [18]): 12%
Average Percent Inhibition (collagenase 1; [19]): 8%
Average Percent Inhibition (collagenase 1; [20]): 6%
Average Percent Inhibition (collagenase 1; [21]): 4%
Average Percent Inhibition (collagenase 1; [22]): 50%
Average Percent Inhibition (collagenase 1; [23]): 29%
Average Percent Inhibition (collagenase 1; [24]): 15%
Average Percent Inhibition (collagenase 1; [25]): 18%
Average Percent Inhibition (collagenase 1; [26]): 12%
Average Percent Inhibition (collagenase 1; [27]): 9%
Average Percent Inhibition (collagenase 1; [28]): 7%
Average Percent Inhibition (collagenase 1; [29]): 17%
Average Percent Inhibition (collagenase 1; [30]): 3%
Average Percent Inhibition (collagenase 1; [31]): 0%
Average Percent Inhibition (collagenase 1; [32]): 0%
Average Percent Inhibition (collagenase 1; [33]): −1%
Average Percent Inhibition (collagenase 1; [34]): −1%
Average Percent Inhibition (collagenase 1; [35]): −1%
Average Percent Inhibition (collagenase 1; [36]): 15%
Average Percent Inhibition (collagenase 1; [37]): 6%
Average Percent Inhibition (collagenase 1; [38]): 3%
Average Percent Inhibition (collagenase 1; [39]): 3%
Average Percent Inhibition (collagenase 1; [40]): 2%
Average Percent Inhibition (collagenase 1; [41]): 1%
Average Percent Inhibition (collagenase 1; [42]): 1%
inhibition of collagenase 1 by type II collagen (collagenase 1; early timepoints, FlSub3): small but significant inhibition
Improvement In Selectivity (Gel-A v Col-3) (gelatinase A): 80 fold
Improvement In Selectivity (Gel-A v Col-3) (gelatinase A; listed as collagen): approximately 80 fold
Average Percent Inhibition from 1.1 to 6.6 Hours (gelatinase A; Type II Collagen 0.18 ug/ml): 2%
Average Percent Inhibition from 1.1 to 6.6 Hours (gelatinase A; Type II Collagen 0.54 ug/ml): 6%
Average Percent Inhibition from 1.1 to 6.6 Hours (gelatinase A; Type II Collagen 1.63 ug/ml): −52%
Average Percent Inhibition from 1.1 to 6.6 Hours (gelatinase A; Type II Collagen 4.89 ug/ml): 32%
Average Percent Inhibition from 1.1 to 6.6 Hours (gelatinase A; Type II Collagen 14.67 ug/ml): 56%
Average Percent Inhibition from 1.1 to 6.6 Hours (gelatinase A; Type II Collagen 44.00 ug/ml): 83%
Average Percent Inhibition (gelatinase A; [1]): −27%
Average Percent Inhibition (gelatinase A; [2]): 4%
Average Percent Inhibition (gelatinase A; [3]): −52%
Average Percent Inhibition (gelatinase A; [4]): −11%
Average Percent Inhibition (gelatinase A; [5]): −37%
Average Percent Inhibition (gelatinase A; [6]): −68%
Average Percent Inhibition (gelatinase A; [7]): −104%
Average Percent Inhibition (gelatinase A; [8]): 37%
Average Percent Inhibition (gelatinase A; [9]): 43%
Average Percent Inhibition (gelatinase A; [10]): 32%
Average Percent Inhibition (gelatinase A; [11]): 46%
Average Percent Inhibition (gelatinase A; [12]): 37%
Average Percent Inhibition (gelatinase A; [13]): 27%
Average Percent Inhibition (gelatinase A; [14]): 19%
Average Percent Inhibition (gelatinase A; [15]): 56%
Average Percent Inhibition (gelatinase A; [16]): 64%
Average Percent Inhibition (gelatinase A; [17]): 56%
Average Percent Inhibition (gelatinase A; [18]): 70%
Average Percent Inhibition (gelatinase A; [19]): 64%
Average Percent Inhibition (gelatinase A; [20]): 53%
Average Percent Inhibition (gelatinase A; [21]): 41%
Average Percent Inhibition (gelatinase A; [22]): 58%
Average Percent Inhibition (gelatinase A; [23]): 78%
Average Percent Inhibition (gelatinase A; [24]): 83%
Average Percent Inhibition (gelatinase A; [25]): 86%
Average Percent Inhibition (gelatinase A; [26]): 87%
Average Percent Inhibition (gelatinase A; [27]): 85%
Average Percent Inhibition (gelatinase A; [28]): 82%
Average Percent Inhibition (gelatinase A; [29]): 3%
Average Percent Inhibition (gelatinase A; [30]): 9%
Average Percent Inhibition (gelatinase A; [31]): 2%
Average Percent Inhibition (gelatinase A; [32]): 7%
Average Percent Inhibition (gelatinase A; [33]): 3%
Average Percent Inhibition (gelatinase A; [34]): 0%
Average Percent Inhibition (gelatinase A; [35]): −3%
Average Percent Inhibition (gelatinase A; [36]): 2%
Average Percent Inhibition (gelatinase A; [37]): 11%
Average Percent Inhibition (gelatinase A; [38]): 6%
Average Percent Inhibition (gelatinase A; [39]): 12%
Average Percent Inhibition (gelatinase A; [40]): 8%
Average Percent Inhibition (gelatinase A; [41]): 4%
Average Percent Inhibition (gelatinase A; [42]): −1%
inhibition of gelatinase A by type II collagen (gelatinase A; highest concentration (44 ug/ml), six hour time course, FlSub3): Almost complete inhibition
Substance: Type II Collagen: bovine type II collagen, full length MMP substrate used as inhibitor of gelatinases
